According to patent publication US20220090005A1, “Supplemented Serum-Containing Culture Medium for Enhanced Arpe-19 Growth and Human Cytomegalovirus Vaccine Production” (priority 2019, published 2022):

System: ARPE-19 cells
Experiment: Screening of individual supplements on ARPE-19 cell growth, 96-well plate, Hoechst nuclear stain
Type: cell-based, human
Details: components with p-value of <0.05; DMEM/F12 2% FBS, days 2-8 post plant, FIG. 1

B1: EGF: Epidermal Growth Factor, growth factor supplement (protein, UniProt P01133 23-1207, looked up)
Pro-epidermal growth factor: PQHWSCPEGTLAGNGNSTCVGPAPFLIFSHGNSIFRIDTEGTNYEQLVVDAGVSVIMDFHYNEKRIYWVDLERQLLQRVFLNGSRQERVCNIEKNVSGMAINWINEEVIWSNQQEGIITVTDMKGNNSHILLSALKYPANVAVDPVERFIFWSSEVAGSLYRADLDGVGVKALLETSEKITAVSLDVLDKRLFWIQYNREGSNSLICSCDYDGGSVHISKHPTQHNLFAMSLFGDRIFYSTWKMKTIWIANKHTGKDMVRINLHSSFVPLGELKVVHPLAQPKAEDDTWEPEQKLCKLRKGNCSSTVCGQDLQSHLCMCAEGYALSRDRKYCEDVNECAFWNHGCTLGCKNTPGSYYCTCPVGFVLLPDGKRCHQLVSCPRNVSECSHDCVLTSEGPLCFCPEGSVLERDGKTCSGCSSPDNGGCSQLCVPLSPVSWECDCFPGYDLQLDEKSCAASGPQPFLLFANSQDIRHMHFDGTDYGTLLSQQMGMVYALDHDPVENKIYFAHTALKWIERANMDGSQRERLIEEGVDVPEGLAVDWIGRRFYWTDRGKSLIGRSDLNGKRSKIITKENISQPRGIAVHPMAKRLFWTDTGINPRIESSSLQGLGRLVIASSDLIWPSGITIDFLTDKLYWCDAKQSVIEMANLDGSKRRRLTQNDVGHPFAVAVFEDYVWFSDWAMPSVMRVNKRTGKDRVRLQGSMLKPSSLVVVHPLAKPGADPCLYQNGGCEHICKKRLGTAWCSCREGFMKASDGKTCLALDGHQLLAGGEVDLKNQVTPLDILSKTRVSEDNITESQHMLVAEIMVSDQDDCAPVGCSMYARCISEGEDATCQCLKGFAGDGKLCSDIDECEMGVPVCPPASSKCINTEGGYVCRCSEGYQGDGIHCLDIDECQLGEHSCGENASCTNTEGGYTCMCAGRLSEPGLICPDSTPPPHLREDDHHYSVRNSDSECPLSHDGYCLHDGVCMYIEALDKYACNCVVGYIGERCQYRDLKWWELRHAGHGQQQKVIVVAVCVVVLVMLLLLSLWGAHYYRTQKLLSKNPKNPYEESSRDVRSRRPADTEDGMSSCPQPWFVVIKEHQDLKNGGQPVAGEDGQAADGSMQPTSWRQEPQLCGMGTEQGCWIPVSSDKGSCPQVMERSFHMPSYGTQTLEGGVEKPHSLLSANPLWQQRALDPPHQMELTQ
modifications: Pro-epidermal growth factor
notes: Epidermal Growth Factor, growth factor supplement
effect on cell growth: positive effect on cell growth
